# Measurements published in article PMC7855945 (Cellular microbiology, 2020).
# B1: recombinant A. fumigatus Hsp90 (rAfHsp90), full length, 6×His-tagged (natural protein)
# chain: not shown
# Target: the molecule itself
# Experiment: SEC
protein,measurement,value
B1,stoichiometry N,2
